In patent US20190142902A1 (RELAXERA PHARMAZEUTISCHE GESELLSCHAFT MBH, published 2019):

Molecular target: T1, human relaxin receptor RXFP1 (relaxin family peptide receptor 1) (human, UniProt Q9HBX9 1-757)
T1 sequence (looked up): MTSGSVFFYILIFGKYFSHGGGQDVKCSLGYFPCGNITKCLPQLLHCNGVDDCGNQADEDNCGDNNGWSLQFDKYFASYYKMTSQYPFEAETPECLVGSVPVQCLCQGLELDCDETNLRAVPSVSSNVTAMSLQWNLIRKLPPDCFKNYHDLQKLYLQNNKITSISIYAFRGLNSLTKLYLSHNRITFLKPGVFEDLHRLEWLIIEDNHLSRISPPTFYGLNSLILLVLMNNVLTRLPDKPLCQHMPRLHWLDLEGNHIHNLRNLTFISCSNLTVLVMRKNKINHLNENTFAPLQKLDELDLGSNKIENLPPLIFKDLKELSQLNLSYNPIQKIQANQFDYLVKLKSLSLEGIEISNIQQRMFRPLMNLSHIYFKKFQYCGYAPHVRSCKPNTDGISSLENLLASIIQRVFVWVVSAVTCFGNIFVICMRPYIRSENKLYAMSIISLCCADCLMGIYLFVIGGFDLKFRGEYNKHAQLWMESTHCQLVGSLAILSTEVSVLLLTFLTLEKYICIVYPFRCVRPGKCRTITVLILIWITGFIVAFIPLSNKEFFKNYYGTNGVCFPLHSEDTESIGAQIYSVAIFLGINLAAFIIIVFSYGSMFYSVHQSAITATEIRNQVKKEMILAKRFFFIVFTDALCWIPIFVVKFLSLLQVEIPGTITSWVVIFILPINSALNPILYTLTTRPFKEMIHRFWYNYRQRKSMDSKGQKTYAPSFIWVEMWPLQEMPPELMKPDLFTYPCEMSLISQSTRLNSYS
Test: cell-based or functional assay

B1: -Asp-shRlx, single aa degradation product of synthetic human relaxin-2 (ligand)
chain 1: ELYSALANKCCHVGCTKRSLARFC
chain 2: SWMEEVIKLCGRELVRAQIAICGMSTWS
modifications: pGlu (pyroglutamate) at position 1
- cAMP response pEC50 (cAMP reporter gene assay, HEK293T cells overexpressing RXFP1): 10.2 pEC50 (negative decadic logarithm of the half-maximum concentration)
